Patent publication US20230102339A1 (Eli Lilly, published 2023)
Positions count from the first letter of the chain named. Where two headings read alike, the source gives them in different places.

B1: Example 3 (Incretin Analog 3) (peptide)
peptide: YXQGTXTSDXSIXLDXKAQXXFIXXLLEGGPSSGEPPPS
modifications: Aib at 2; αMeF(2F) at 6; 4Pal at 10; αMeL at 13; Orn (O) at 16; K17 conjugated on the epsilon-amino group with 2-[2-(2-amino-ethoxy)-ethoxy]-acetyl-γE-CO-(CH2)18-CO2H; αMeL at 20; Aib at 21; D-glutamic acid (e) at 24; αMeY at 25; C-terminal amide (S39-NH2)
notes: Synthetic acylated 39-residue peptide
B2: Example 1 (Incretin Analog 1) (peptide)
peptide: YXQGTXTSDYSILLDXKAQXAFIEYLLEGGPSSGEPPPE
modifications: Aib at 2; αMeF(2F) at 6; Orn (O) at 16; K17 conjugated on the epsilon-amino group with 2-[2-(2-amino-ethoxy)-ethoxy]-acetyl-γE-CO-(CH2)18-CO2H; 4Pal at 20; C-terminal amide (E39-NH2)
notes: Synthetic acylated 39-residue peptide, obtained as TFA salt
B3: Example 2 (Incretin Analog 2) (peptide)
peptide: B1 peptide with X10Y, X21A, X24E
modifications: Aib at 2; αMeF(2F) at 6; αMeL at 13; Orn (O) at 16; K17 conjugated on the epsilon-amino group with 2-[2-(2-amino-ethoxy)-ethoxy]-acetyl-γE-CO-(CH2)18-CO2H; Iva at 20; αMeY at 25; C-terminal amide (S39-NH2)
notes: as for B1

Experiments:
[1] = target: T1, human GIP receptor (hGIPR) (human, UniProt P48546 22-466); experiment: cell-based or functional assay
T1 sequence: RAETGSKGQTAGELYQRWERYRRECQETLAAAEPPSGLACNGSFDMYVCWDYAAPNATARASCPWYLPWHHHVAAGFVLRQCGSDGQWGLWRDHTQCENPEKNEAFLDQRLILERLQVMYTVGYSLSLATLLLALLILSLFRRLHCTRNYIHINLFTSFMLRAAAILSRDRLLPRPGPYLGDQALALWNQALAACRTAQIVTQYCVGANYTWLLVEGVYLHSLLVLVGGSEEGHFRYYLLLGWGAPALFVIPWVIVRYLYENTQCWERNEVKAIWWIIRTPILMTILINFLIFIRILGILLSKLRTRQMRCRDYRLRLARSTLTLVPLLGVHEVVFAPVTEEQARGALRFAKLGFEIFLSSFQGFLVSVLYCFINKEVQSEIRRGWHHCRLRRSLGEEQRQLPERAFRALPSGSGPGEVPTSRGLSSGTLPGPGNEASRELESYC

[2] = target: T1, human GIP receptor (hGIPR); experiment: radioligand competition binding, SPA, membranes of HEK293 cells overexpressing hGIPR, with bacitracin
Method: (§1) The assays are performed in the presence of bacitracin as a non-specific blocking agent to prevent acylated moieties of test analogs from binding to protein components used in standard assay buffers (e.g., albumin).
(§2) Competition curves are plotted as the percent specific inhibition (y-axis) versus log concentration of compound (x-axis) and analyzed using a four-parameter nonlinear regression fit with variable slope (ABase or Genedata).

[3] = target: T2, human GCG receptor (hGCGR) (human, UniProt P47871 26-477); experiment: radioligand competition binding, SPA, membranes of HEK293 cells overexpressing hGCGR, with bacitracin
T2 construct: The cAMP assay used HEK-293 clonal cells expressing it; no signal peptide limits are stated; also called glucagon receptor
Method: as §1, §2

[4] = target: T3, human GLP-1 receptor (hGLP-1R) (human, UniProt P43220 24-463); experiment: cell-based or functional assay
[5] = target: T2, human GCG receptor (hGCGR); experiment: cell-based or functional assay
[6] = target: T1, human GIP receptor (hGIPR); experiment: cell-based or functional assay; remark: listed apart in the source
[7] = target: T3, human GLP-1 receptor (hGLP-1R); experiment: cell-based or functional assay; remark: listed apart in the source
[8] = target: T2, human GCG receptor (hGCGR); experiment: cell-based or functional assay; remark: listed apart in the source
[9] = target: T1, human GIP receptor (hGIPR); experiment: cell-based or functional assay; remark: listed apart in the source
[10] = target: T3, human GLP-1 receptor (hGLP-1R); experiment: radioligand competition binding, SPA, membranes of HEK293 cells overexpressing hGLP-1R, with bacitracin
Method: as §1, §2

T2 sequence (P47871 other isoform, or with tags, fused parts or gaps limits assumed): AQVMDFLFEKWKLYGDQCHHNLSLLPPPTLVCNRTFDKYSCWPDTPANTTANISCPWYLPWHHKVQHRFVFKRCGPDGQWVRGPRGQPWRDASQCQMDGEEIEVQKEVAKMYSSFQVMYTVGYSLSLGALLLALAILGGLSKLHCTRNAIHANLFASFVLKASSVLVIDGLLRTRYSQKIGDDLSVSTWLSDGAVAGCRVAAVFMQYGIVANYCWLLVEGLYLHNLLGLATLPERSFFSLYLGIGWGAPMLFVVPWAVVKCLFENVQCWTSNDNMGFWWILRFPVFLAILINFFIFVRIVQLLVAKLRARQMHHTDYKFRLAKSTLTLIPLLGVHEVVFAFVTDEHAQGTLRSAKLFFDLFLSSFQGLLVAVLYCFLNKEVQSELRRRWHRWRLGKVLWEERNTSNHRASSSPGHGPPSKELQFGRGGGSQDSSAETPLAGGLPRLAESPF

Row | Molecule | cAMP EC50 (0.1% bovine casein) [1] [nM] | cAMP EC50 (0.1% bovine casein, 1.0% human serum albumin) [1] [nM] | cAMP Emax (0.1% bovine casein) [1] [%] | Ki [2] [nM] | Ki [3] [nM] | cAMP EC50 (0.1% bovine casein, 1.0% human serum albumin) [4] [nM] | cAMP Emax (0.1% bovine casein, 1.0% human serum albumin) [4] [%] | cAMP EC50 (0.1% bovine casein, 1.0% human serum albumin) [5] [nM] | cAMP Emax (0.1% bovine casein, 1.0% human serum albumin) [5] [%] | cAMP EC50 (0.1% bovine casein, 1.0% human serum albumin) [6] [nM] | cAMP Emax (0.1% bovine casein, 1.0% human serum albumin) [6] [%] | cAMP EC50 (0.1% bovine casein) [7] [nM] | cAMP Emax (0.1% bovine casein) [7] [%] | cAMP EC50 (0.1% bovine casein) [8] [nM] | cAMP Emax (0.1% bovine casein) [8] [%] | cAMP EC50 (0.1% bovine casein) [9] [nM] | cAMP Emax (0.1% bovine casein) [9] [%] | Ki [10] [nM]
1 | human GIP(1-42)NH2 (from UniProt P09681 52-93) (ligand) | 1.08 | 0.756 | 98 | – | – | – | – | – | – | – | – | – | – | – | – | – | – | –
2 | B1 | – | – | – | 0.114 | 1.73 | 114 | 111 | 480 | 97 | 3.72 | 105 | 0.451 | 107 | 2.49 | 99 | 0.0306 | 103 | 3.63
3 | B2 | – | – | – | 0.111 | 0.629 | 180 | 102 | – | – | – | – | 0.345 | 106 | 1.2 | 101 | 0.0513 | 102 | 4.53
4 | B3 | – | – | – | 0.158 | 0.95 | 119 | 116 | 537 | 112 | 2.91 | 99 | – | – | – | – | 0.0256 | 101 | 2.54
